Data: publication PMC3866087, “Heat Shock Transcription Factor σ^32 Co-opts the Signal Recognition Particle to Regulate Protein Homeostasis in E. coli” (PLoS Biology, 2013)

Target: T1, purified SecA (E. coli, UniProt P10408 1-901)
T1 construct: SecA, ATP-fueled motor protein of the Sec translocon of E. coli, purified; source: purified essentially as described [82]
Assay: far-Western, overlay or dot blot; purified FtsY, Ffh, SecA or Ffh partially digested by Glu-C (V8) resolved on 10% SDS-PAGE, transferred to nitrocellulose, re-natured, incubated with purified WTσ^32, probed with polyclonal anti-σ^32
Details: both partners purified

T1 sequence (P10408 whole entry): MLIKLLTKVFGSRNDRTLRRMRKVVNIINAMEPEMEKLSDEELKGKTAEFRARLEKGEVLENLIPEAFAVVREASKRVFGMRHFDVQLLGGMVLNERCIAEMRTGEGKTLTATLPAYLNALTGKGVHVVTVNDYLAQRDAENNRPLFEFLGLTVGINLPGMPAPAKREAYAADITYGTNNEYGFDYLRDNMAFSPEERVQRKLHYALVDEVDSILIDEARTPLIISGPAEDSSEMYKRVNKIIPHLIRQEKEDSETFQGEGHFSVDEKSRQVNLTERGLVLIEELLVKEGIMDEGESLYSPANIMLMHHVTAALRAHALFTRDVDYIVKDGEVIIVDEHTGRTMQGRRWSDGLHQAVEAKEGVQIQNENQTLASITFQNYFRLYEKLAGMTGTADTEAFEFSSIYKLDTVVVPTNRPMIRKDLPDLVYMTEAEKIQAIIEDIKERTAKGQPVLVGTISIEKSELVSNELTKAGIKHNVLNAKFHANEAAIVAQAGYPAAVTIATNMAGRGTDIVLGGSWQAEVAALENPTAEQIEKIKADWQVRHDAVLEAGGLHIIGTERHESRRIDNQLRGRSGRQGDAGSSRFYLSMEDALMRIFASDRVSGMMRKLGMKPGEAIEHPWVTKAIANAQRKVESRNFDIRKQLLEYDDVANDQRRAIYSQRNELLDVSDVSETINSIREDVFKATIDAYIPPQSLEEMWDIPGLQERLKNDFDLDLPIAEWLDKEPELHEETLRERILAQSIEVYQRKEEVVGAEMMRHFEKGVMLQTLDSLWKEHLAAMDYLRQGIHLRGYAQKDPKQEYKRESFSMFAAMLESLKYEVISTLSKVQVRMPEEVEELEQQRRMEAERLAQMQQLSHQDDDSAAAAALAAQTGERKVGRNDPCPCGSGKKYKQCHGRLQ

binding result: binds
B1: purified WTσ^32 (natural protein, E. coli, UniProt P0AGB3 1-284, looked up)
chain: MTDKMQSLALAPVGNLDSYIRAANAWPMLSADEERALAEKLHYHGDLEAAKTLILSHLRFVVHIARNYAGYGLPQADLIQEGNIGLMKAVRRFNPEVGVRLVSFAVHWIKAEIHEYVLRNWRIVKVATTKAQRKLFFNLRKTKQRLGWFNQDEVEMVARELGVTSKDVREMESRMAAQDMTFDLSSDDDSDSQPMAPVLYLQDKSSNFADGIEDDNWEEQAANRLTDAMQGLDERSQDIIRARWLDEDNKSTLQELADRYGVSAERVRQLEKNAMKKLRAAIEA
notes: RNA polymerase sigma factor σ^32 (RpoH) of E. coli, wild type, purified; called full-length in the discussion; The methods list 6×H-tagged, Strep-6×H-tagged and untagged σ^32; also called full-length σ^32; source: purified essentially as described [80]; chaperones removed with a wash of ATP, MgCl2 and two peptides
